Assay results from patent publication US20140165223A1, “TNF SUPERFAMILY TRIMERIZATION INHIBITORS” (B.S.R.C. "Alexander Fleming", priority 2011, published 2014).

What was measured:
RANKL [1] = molecular target: T1, RANKL (Mus musculus, UniProt O35235); assay: Trimer formation in transfected HEK 293FT cells (native gel, Western blot); format: cell-based; details: co-transfection with WT RANKL-FLAG
T1 construct: expressed in transfected cells; host or cells: HEK 293FT
T1 sequence (O35235 1-316): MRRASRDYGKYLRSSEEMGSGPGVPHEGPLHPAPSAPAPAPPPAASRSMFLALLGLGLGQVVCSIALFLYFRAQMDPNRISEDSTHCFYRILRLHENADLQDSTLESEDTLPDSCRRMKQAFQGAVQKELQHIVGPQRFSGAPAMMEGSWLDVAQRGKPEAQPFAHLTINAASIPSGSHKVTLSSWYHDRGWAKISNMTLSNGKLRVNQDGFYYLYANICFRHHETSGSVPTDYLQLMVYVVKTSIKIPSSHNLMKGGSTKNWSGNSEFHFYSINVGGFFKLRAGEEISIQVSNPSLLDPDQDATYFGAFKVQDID
Method: (§1) Similar to the analysis of recombinant RANKL proteins, trimer formation was detected only in WT RANKL-Myc but not in RANKL^G278R-Myc.
(§2) HEK 293FT cells were transfected with 1 μg plasmid DNA using TransIt-293 transfection reagent (Mirus, Madison, Wis.). After 48 hours, transfected cells were harvested in PBS and the half quantity was diluted in equal volume of 2× Laemmli sample buffer, and analyzed in 12% acrylamide denatured gels. The remaining cells were lysed by sonication, centrifuged, and analyzed in 8% native acrylamide gels.

RANKL [2] = molecular target: T2, RANKL (Mus musculus, UniProt O35235, G278R); assay: as above; format: cell-based; details: HEK 293FT, RANKL^G278R-Myc
T2 construct: expressed in transfected cells; host or cells: HEK 293FT
T2 sequence (O35235 1-316 G278R): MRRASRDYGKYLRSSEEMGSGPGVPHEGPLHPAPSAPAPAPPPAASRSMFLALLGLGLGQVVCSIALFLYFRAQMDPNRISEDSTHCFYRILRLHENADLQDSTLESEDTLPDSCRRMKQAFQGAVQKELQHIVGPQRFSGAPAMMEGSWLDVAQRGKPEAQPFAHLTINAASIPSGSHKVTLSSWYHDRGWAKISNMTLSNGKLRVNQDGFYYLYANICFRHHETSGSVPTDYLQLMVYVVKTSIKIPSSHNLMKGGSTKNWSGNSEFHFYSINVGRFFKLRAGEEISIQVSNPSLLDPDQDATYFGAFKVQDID
Method: as §1, §2

GST-RANKL [3] = molecular target: T3, GST-RANKL (Mus musculus, UniProt O35235); assay: Ex vivo RANKL-induced osteoclast formation (BM cells, M-CSF + GST-RANKL, TRAP staining); format: cell-based
T3 construct: a cDNA encoding the core ectodomain of murine RANKL residues 158-316, with or without the G278R substitution; made in house; host or cells: Escherichia coli BL21
T3 sequence (O35235 158-316): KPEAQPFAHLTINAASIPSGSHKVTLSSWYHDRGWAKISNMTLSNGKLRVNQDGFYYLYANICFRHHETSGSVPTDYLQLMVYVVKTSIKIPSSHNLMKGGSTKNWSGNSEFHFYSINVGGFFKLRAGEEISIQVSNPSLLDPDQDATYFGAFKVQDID
Method: (§3) Instead, WT GST-RANKL (ratio 1:0) induced formation of TRAP+ giant osteoclasts (FIGS. 5A-5C). […] Incubation of WT GST-RANKL with GST at similar concentrations (12.5-100 ng/ml), didn't affect the formation of osteoclasts.
(§4) A novel small molecule inhibitor of TNF trimerization, named SPD304, has been recently reported^[35] to interact with glycine 122 (G122) that corresponds to G278 in RANKL.
(§5) BM cells were collected after flushing out of femurs and tibiae, subjected to gradient purification using FICOLL-PAQUE™ (GE Healthcare), plated in 24-well plates at a density of 5×10^5 cells per well and cultured in αMEM medium (GIBCO) containing 10% fetal bovine serum supplemented with 40 ng/ml RANKL (R&D Systems) and 25 ng/ml M-CSF (R&D Systems) for 5 days. Similarly, splenocytes were collected, plated in 24-well plates at a density of 10^6 cells per well and cultured in the presence of recombinant RANKL and M-CSF for 6 days. GST-RANKL^G278R was pre-incubated with WT GST-RANKL at room temperature for 20 min, prior to the stimulation of the BM cell cultures, in order to enable exchange of the RANKL variants and heterotrimer formation. Small molecule SPD304 (Sigma-Aldrich) was pre-incubated with 80 ng/ml GST-RANKL at various concentrations from 0.25 to 2 μM in αMEM medium for 1 hour at room temperature and then added to culture. Osteoclasts were stained for TRAP activity.

GST-RANKL [4] = assay: as above; format: cell-based, mouse; details: ratio WT GST-RANKL:GST-RANKL^G278R 0:1
Method: as §3, §4, §5

RANK-Fc = molecular target: T4, RANK-Fc (Mus musculus, UniProt O35305); assay: Binding assay of GST-RANKL^G278R to RANK; details: immobilized protein, serial dilutions of murine RANK-Fc
T4 construct: purchased R&D systems
T4 sequence (O35305 with tags, fused parts or gaps limits assumed): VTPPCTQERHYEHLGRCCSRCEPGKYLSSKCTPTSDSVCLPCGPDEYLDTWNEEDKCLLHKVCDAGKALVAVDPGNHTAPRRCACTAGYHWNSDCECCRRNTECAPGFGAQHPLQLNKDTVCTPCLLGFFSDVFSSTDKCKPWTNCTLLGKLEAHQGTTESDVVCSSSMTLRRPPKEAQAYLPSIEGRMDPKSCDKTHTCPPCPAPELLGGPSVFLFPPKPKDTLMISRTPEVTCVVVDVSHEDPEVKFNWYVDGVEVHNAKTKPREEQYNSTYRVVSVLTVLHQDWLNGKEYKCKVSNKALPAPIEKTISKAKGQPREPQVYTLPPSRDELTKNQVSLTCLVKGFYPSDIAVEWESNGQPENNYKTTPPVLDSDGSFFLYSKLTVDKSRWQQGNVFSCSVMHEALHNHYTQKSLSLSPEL
Method: RANK-Fc interacted with GST-RANKL in a dose-dependent manner, but not with GST-RANKL^G278R or GST.
Nunc plates were coated with recombinant WT GST-RANKL, GST-RANKL^G278R or GST at 3 μg/ml and after blocking with 1% BSA, were incubated with increasing amount of recombinant mouse RANK-Fc (R&D systems). RANK binding was detected with a phycoerythrin (PE) conjugated goat anti-human IgG (Fc) (SouthernBiotech, Birmingham, USA) that was measured (539-573 nm) with the fluorescent plate reader TECAN infinite M200.

B1: RANKL^G278R: murine RANKL with glycine to arginine substitution at residue 278; soluble or full-length Myc-tagged (protein, UniProt O35235 139-316, looked up, variant G278R)
Tumor necrosis factor ligand …: FSGAPAMMEGSWLDVAQRGKPEAQPFAHLTINAASIPSGSHKVTLSSWYHDRGWAKISNMTLSNGKLRVNQDGFYYLYANICFRHHETSGSVPTDYLQLMVYVVKTSIKIPSSHNLMKGGSTKNWSGNSEFHFYSINVGRFFKLRAGEEISIQVSNPSLLDPDQDATYFGAFKVQDID
modifications: Myc tag
notes: murine RANKL with glycine to arginine substitution at residue 278; soluble or full-length Myc-tagged
effect on WT RANKL trimerization (RANKL [1]): inhibits WT RANKL trimerization
own trimer formation in eukaryotic cells (RANKL [2]): fails to form trimers

B2: GST-RANKL^G278R: murine RANKL ectodomain residues 158-316 with G278R substitution, fused to GST (protein)
chain: KPEAQPFAHLTINAASIPSGSHKVTLSSWYHDRGWAKISNMTLSNGKLRVNQDGFYYLYANICFRHHETSGSVPTDYLQLMVYVVKTSIKIPSSHNLMKGGSTKNWSGNSEFHFYSINVGRFFKLRAGEEISIQVSNPSLLDPDQDATYFGAFKVQDID
formation of TRAP+ giant multinucleated cells (GST-RANKL [3]; ratio WT GST-RANKL:GST-RANKL^G278R 1:1): completely impaired the formation of TRAP+ giant multinucleated cells
formation of multinucleated TRAP+ osteoclasts (GST-RANKL [3]; ratio WT GST-RANKL:GST-RANKL^G278R 1:2 (50 ng/ml GST-RANKL, 100 ng/ml variant)): Complete inhibition in the formation of multinucleated TRAP+ osteoclasts
formation of TRAP+ giant multinucleated cells (GST-RANKL [3]; ratio WT GST-RANKL:GST-RANKL^G278R 2:1): a small number of TRAP+ giant multinucleated cells was formed
formation of giant osteoclast-like cells (GST-RANKL [3]; ratio WT GST-RANKL:GST-RANKL^G278R 4:1 or higher): Formation of giant osteoclast-like-cells appeared
induction of TRAP+ cells by the variant alone (GST-RANKL [4]): failed to induce formation of TRAP+ cells
binding affinity for RANK-Fc (RANK-Fc): completely abolished
